The source of these data is PMC4119481.

The target of the assay is T1, IFN regulatory factor 3 (mouse (endogenous in BMDMs)), P70671.
T1 chain: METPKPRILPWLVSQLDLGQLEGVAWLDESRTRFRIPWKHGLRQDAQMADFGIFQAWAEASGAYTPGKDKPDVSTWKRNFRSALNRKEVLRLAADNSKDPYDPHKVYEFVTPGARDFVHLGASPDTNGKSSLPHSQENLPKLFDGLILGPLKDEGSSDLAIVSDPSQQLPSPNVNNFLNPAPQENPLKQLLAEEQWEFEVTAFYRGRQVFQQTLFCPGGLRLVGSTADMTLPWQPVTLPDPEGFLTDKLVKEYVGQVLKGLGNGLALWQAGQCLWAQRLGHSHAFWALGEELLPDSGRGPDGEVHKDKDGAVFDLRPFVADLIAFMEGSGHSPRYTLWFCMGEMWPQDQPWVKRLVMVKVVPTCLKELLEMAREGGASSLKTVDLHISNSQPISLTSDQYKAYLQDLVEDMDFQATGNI
The experiment in a line: native gel or EMSA. To be noted: remark: other sources report otherwise.

B1: IFN regulatory factor 3, P70671 1-419 (natural protein)
chain: METPKPRILPWLVSQLDLGQLEGVAWLDESRTRFRIPWKHGLRQDAQMADFGIFQAWAEASGAYTPGKDKPDVSTWKRNFRSALNRKEVLRLAADNSKDPYDPHKVYEFVTPGARDFVHLGASPDTNGKSSLPHSQENLPKLFDGLILGPLKDEGSSDLAIVSDPSQQLPSPNVNNFLNPAPQENPLKQLLAEEQWEFEVTAFYRGRQVFQQTLFCPGGLRLVGSTADMTLPWQPVTLPDPEGFLTDKLVKEYVGQVLKGLGNGLALWQAGQCLWAQRLGHSHAFWALGEELLPDSGRGPDGEVHKDKDGAVFDLRPFVADLIAFMEGSGHSPRYTLWFCMGEMWPQDQPWVKRLVMVKVVPTCLKELLEMAREGGASSLKTVDLHISNSQPISLTSDQYKAYLQDLVEDMDFQATGNI
A word on the stoichiometry N: it is a count of units in the complex or per binding partner. For the molecule B1, the stoichiometry N came to 2.
